Test results: US20260234738A1 (Regeneron, published 2026)

Molecular target: SARS-COV-2 RBD-hFc (SARS-CoV-2)

B1: mAb10978 (antibody)
heavy chain: QVQLVESGGGVVQPGRSLRLSCAASGFTFSSYAMHWVRQAPGKGLEWVAVISYDGSNKYYADSVKGRFTISRDNSKNTLYLQMNSLRAEDTAVYYCARDGRTITMVRGVIDDAFDIWGQGTMVTVSSASTKGPSVFPLAPCSRSTSESTAALGCLVKDYFPEPVTVSWNSGALTSGVHTFPAVLQSSGLYSLSSVVTVPSSSLGTKTYTCNVDHKPSNTKVDKRVESKYGPPCPPCPAPGGGGPSVFLFPPKPKDTLMISRTPEVTCVVVDVSQEDPEVQFNWYVDGVEVHNAKTKPREEQFNSTYRVVSVLTVLHQDWLNGKEYKCKVSNKGLPSSIEKTISKAKGQPREPQVYTLPPSQEEMTKNQVSLTCLVKGFYPSDIAVEWESNGQPENNYKTTPPVLDSDGSFFLYSRLTVDKSRWQEGNVFSCSVMHEALHNHYTQKSLSLSLGK
light chain: not shown
With B1 the “IC50 (read off the curve)” value was roughly 0.1 nM.
